Measurements as given in article PMC5282591, “The differential ability of asparagine and glutamine in promoting the closed/active enzyme conformation rationalizes the Wolinella succinogenes L-asparaginase substrate specificity” (Scientific Reports, 2017).

Key:
Assay in all cases: purified protein
Settings in all cases: 37 °C
purified protein [1] = substrate: NC(=O)CC[C@H](N)C(=O)O
purified protein [2] = substrate: NC(=O)C[C@H](N)C(=O)O; assay type: biochemical, Wolinella succinogenes
purified protein [3] = substrate: NC(=O)CC[C@H](N)C(=O)O; assay type: biochemical, Wolinella succinogenes

B1: WoA-S121 (Wolinella succinogenes L-asparaginase) (Wolinella succinogenes DSM 1740) (protein)
chain: MAKPQVTILATGGTIAGSGESSVKSSYSAGAVTVDKLLAAVPAINDLATIKGEQISSIGSQEMTGKVWLKLAKRVNELLAQKETEAVIITHGTDTMEETAFFLNLTVKSQKPVVLVGAMRSGSSMSADGPMNLYNAVNVAINKASTNKGVVIVMNDEIHAAREATKLNTTAVNAFASPNTGKIGTVYYGKVEYFTQSVRPHTLASEFDISKIEELPRVDILYAHPDDTDVLVNAALQAGAKGIIHAGMGNGNPFPLTQNALEKAAKSGVVVARSSRVGSGSTTQEAEVDDKKLGFVATESLNPQKARVLLMLALTKTSDREAIQKIFSTY
notes: recombinant, pET28 vector, E. coli BL21-AI; 330 residues per protomer; tetramer (dimer of dimers)
**Q.** Which Km (purified protein [1]) does the source give for B1 here?
**A.** The Km was 380 ± 50 µM.

**Q.** And the kcat (purified protein [1])?
**A.** The kcat was 1.58 s⁻¹.

**Q.** What about the kcat/Km (purified protein [1]) of the same protein?
**A.** Its kcat/Km is 4200 M⁻¹ s⁻¹.

**Q.** And the Km (purified protein [2])?
**A.** Its Km is 21.7 ± 1.2 µM.

**Q.** And the kcat (purified protein [2])?
**A.** Its kcat is 97.8 ± 1 s⁻¹.

**Q.** What about the kcat/Km (purified protein [2]) of the same protein?
**A.** The kcat/Km was 4.5e+06 ± 250000 M⁻¹ s⁻¹.

B2: WoA-S121 (Wolinella succinogenes L-asparaginase) (Wolinella succinogenes DSM 1740; S121P) (protein)
chain: MAKPQVTILATGGTIAGSGESSVKSSYSAGAVTVDKLLAAVPAINDLATIKGEQISSIGSQEMTGKVWLKLAKRVNELLAQKETEAVIITHGTDTMEETAFFLNLTVKSQKPVVLVGAMRPGSSMSADGPMNLYNAVNVAINKASTNKGVVIVMNDEIHAAREATKLNTTAVNAFASPNTGKIGTVYYGKVEYFTQSVRPHTLASEFDISKIEELPRVDILYAHPDDTDVLVNAALQAGAKGIIHAGMGNGNPFPLTQNALEKAAKSGVVVARSSRVGSGSTTQEAEVDDKKLGFVATESLNPQKARVLLMLALTKTSDREAIQKIFSTY
notes: as for B1
**Q.** What does the source list for B2?
**A.** Km (purified protein [2]): 23.6 ± 1.1 µM; kcat (purified protein [2]): 86.7 ± 0.8 s⁻¹; kcat/Km (purified protein [2]): 3.7e+06 ± 170000 M⁻¹ s⁻¹; Km (purified protein [3]): 320 ± 20 µM; kcat (purified protein [3]): 11.33 ± 0.11 s⁻¹; kcat/Km (purified protein [3]): 35300 ± 2240 M⁻¹ s⁻¹
